This note sets out measurements from PMC9974095, “TP63 gain-of-function mutations cause premature ovarian insufficiency by inducing oocyte apoptosis” (The Journal of Clinical Investigation, 2023).

In data set [1] the target is TAp63αΔTID. The experiment in a line: co-IP (anti-p63 IP, GFP Western blot, quantified). As to conditions: HEK293 cells cotransfected with TAp63αΔTID and GFP-TID plasmids; 3 independent experiments; parent: est. 6.4; read off a plot.
In data set [2] the target is TAp63α p.Q568fs*3 (human) (UniProt Q9H3D4). The experiment in a line: native gel or EMSA; BN-PAGE (NativePAGE 3%-12% Bis-Tris) of lysates of transfected SAOS-2 cells treated with 10 uM MG132 for 12 h; blot with anti-p63. In general terms: A gel shift assay detects complexes by their altered migration in electrophoresis.
Data set [3] deals with the molecule itself. Described as above.

Consider GFP-TID, wild type R647C, for which, in data set [1], the response is 3.5 % Input. On the same count and under the same terms, with GFP-TID, wild type R643Q the figure was 2.4 % Input. Turning to “TAp63α p.Q568fs*3 (from UniProt Q9H3D4-1 1-567) (domain or fragment)”, in data set [2], the stoichiometry N came to 4. Regarding GFP-TID, wild type L646P, in data set [1], the response was found to be 0.58 % Input. Take GFP-TID, wild type R655Q: in data set [1], the response worked out at 2.8 % Input.

B1: TAp63α p.R647C (natural protein, human, UniProt Q9H3D4-1 1-680, looked up)
chain: MNFETSRCATLQYCPDPYIQRFVETPAHFSWKESYYRSTMSQSTQTNEFLSPEVFQHIWDFLEQPICSVQPIDLNFVDEPSEDGATNKIEISMDCIRMQDSDLSDPMWPQYTNLGLLNSMDQQIQNGSSSTSPYNTDHAQNSVTAPSPYAQPSSTFDALSPSPAIPSNTDYPGPHSFDVSFQQSSTAKSATWTYSTELKKLYCQIAKTCPIQIKVMTPPPQGAVIRAMPVYKKAEHVTEVVKRCPNHELSREFNEGQIAPPSHLIRVEGNSHAQYVEDPITGRQSVLVPYEPPQVGTEFTTVLYNFMCNSSCVGGMNRRPILIIVTLETRDGQVLGRRCFEARICACPGRDRKADEDSIRKQQVSDSTKNGDGTKRPFRQNTHGIQMTSIKKRRSPDDELLYLPVRGRETYEMLLKIKESLELMQYLPQHTIETYRQQQQQQHQHLLQKQTSIQSPSSYGNSSPPLNKMNSMNKLPSVSQLINPQQRNALTPTTIPDGMGANIPMMGTHMPMAGDMNGLSPTQALPPPLSMPSTSHCTPPPPYPTDCSIVSFLARLGCSSCLDYFTTQGLTTIYQIEHYSMDDLASLKIPEQFRHAIWKGILDHRQLHEFSSPSHLLRTPSSASTVSVGSSETRGERVIDAVRFTLCQTISFPPRDEWNDFNFDMDARRNKQQRIKEEGE
notes: Variant found in three patients with POI; source: SAOS-2, transfected, MG132-treated, in lysate
Regarding B1, the “stoichiometry N” value in data set [3] was determined as 4.

For orientation: stoichiometry N means the number of molecules, sites or subunits per partner or assembly.
